Source: the supplement of paper PMC12636428

System: Saccharomyces cerevisiae
Test: transcriptional activation domain activity (GFP:mCherry ratio, weighted mean of sorted bins, harmonized to initial dataset scale) (arbitrary fluorescence ratio units); higher = stronger transcriptional activation
Details: beta-estradiol 1 µM; induction time 4 h
In short: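 Sorting into 8 bins by GFP:mCherry ratio followed a 4-hour hold at 30 °C after cultures were diluted 1:5 into SC with 1 uM beta-estradiol. The yeast diploids carried a GFP reporter and had barcoded protein tiles, fused to an estradiol-inducible synthetic transcription factor, integrated at URA3. Barcodes were then sequenced, and tiles with under 50 reads were removed. Activation activity is the read-weighted mean of bin median fluorescence, averaged across barcodes and linearly mapped onto the initial dataset scale.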

Row | Sequence | transcriptional activation domain activity
1 | ASDSAPEPVKKKRGRPPKAQSDSEVVEKRPKKKPGPKPKPKAKAARKRKAPVS | 18900
2 | EVETRYTLAIELFQPILKVLVDFESDDLKFGFLVAWLVGLYRRLWELCVFKYI | 58900
3 | VKHLKLSRDKSSPTFKFDSLYREILSSHPELMFILTAMLLWPDLVSDYHILRV | 30200
4 | WIDTVLIVLFSNDVQIKHKLGRLIIDEWIQIKCPTRTCLLLKLLRKKLHNSLA | 33500
5 | NKKRETRKGESTKSNDEEEEEEEDDDDEKKQGQKKQSNGQSKKSNGSSKKEED | 48700
6 | RGATPGRKPAAGGPRESAARAARGRGKGGGTGGEGRGRGRARGRGRTRGKRRT | 54900
7 | VLRLFNDVWAVTLTQLSILALVGVYLILPYYNVLQCCLIRQDVVLLYLPAFLV | 66500
8 | IAYPFFFIHSILLNLYYALLPYAFYLYLYIYIFLSFFSRLTVSSSFIPPLLSP | 65000
9 | PEAAPGEEVKEEAGEEQKPDRRDRRGRDRGGRGGRDRGRGRGGASRGGKRGDT | 26700
10 | MYFAYFYLLPEMSSLSFFPFLSVYVFFIFFSSLICFFFFLSMGFLCLFTFLLV | 45200
11 | MVSMQLSKLFIFSRVRRGGFFFCPCFSLVFLLFLFCIFFFHHFFSFHISFYLP | 41400
12 | IKLMDLLIILLKIHGFRLKYFLLTNDLFPKIMLLCRANHLSLQLCPVRFLRIC | 81100
13 | ERSLGGGSLYTGKAVHTDPEMSEVHATEYTRGRLRKFLCLAFGEVASVLRLDK | 16600
14 | MSAAEDNKPVEAVEKVEEAPQAEEVPKVEEAPAQEEAGATASEKKDANILKTT | 25700
15 | SVTSEAIQVCVAARAREGEANRAVRNVIAEALRVPKSNVQVAKGLKSREKTLI | 43300
16 | GAARVQVDFWFFLFVYYGLYNLTALIWITKVFNLYSLNWWPQSLGFPLTVSLI | 61300
17 | MLTIYFPLLLFLCFHFFNRVKVWWVWVWGRVKLGWVYWFLYLCIWKGGWIRNR | 48300
18 | MGLIIYLGHMGCLMPRDDPTLFTIIHTNGIHHVCIVFCSCAISVHPWQQLLCH | 29000
19 | IPPLVLFFHFHFPSCGGCAFCRCLFLCLLLLALSLPLIPVSLIMCYPCHMYLL | 41100
20 | MSVSSPEDVTSEASGPAATAPAHEPLACVNCRSRKLKCDRQKPVCSRCAKAGG | 46300
21 | RWSYLRTSEMILTFFYKNIMWTLVLFWYQLFCGFSGTMMFDYSYITLYNLVFT | 63200

Row | Sequence | transcriptional activation domain activity
22 | LLKNNILKWMCLVFRFVTRRVRFTYLTLPLATRCVGQGLVYIIRIIQDGHSYI | 43100
23 | LFSQLFFPREQAKGVLGWLVWILYMLEKVLFSFSKRRGFFIVCQLEFCVLILT | 40300
24 | SFSLSVLSFFFFSIWLPLPPLSLSLSLFSPHLFPPLPFTLSLWVQWLYTFSYY | 79300
25 | MDEGFFFFCFSFLFLLSPPSSWYFVFSFFLPLNFPSCSLFFVITFFLFLFFFW | 37900
26 | ASGAGAVKKAPKSPKAVATAKVGAKAAKPKAGAKATKPKAAKPKAAKAAAAGA | 20900
27 | MMMGTIVKSFFLFTFTFSIFFFYFFPRVLFTPFFFTYWTSAFFLLLFLFFFLF | 64900
28 | SCTGVFRAYSILIIMVMMLSEVIILFRTCVLIRRERHGHYIICILCFFSLCVL | 49600
29 | EDEASASTDNDEATTKTEKQPKKKAKAEKVADCEAVVKKKAPAKRQSKKEANQ | 41600
30 | AKLESCNPRAYLDPSTAPIATMARGNQRDKAREANLKKQAAQKKGNSMSGTEM | 44300
31 | ERDEEEDEDEEEEDEGKRRKRRGARSTAAISKRETGKAKDETREDPESRKKRG | 23600
32 | GQSRGTTSGTIATGLCAGLSRGIAESVELQKRIDFALAGYFRYIRWWRLGFMS | 69900
33 | IAAAAEQEEEDEASTSSTNTSNGDANARAHAHAHWESRRERELHADHRGGAGG | 31600
34 | SDAAVELCVAAAPRNGESNKAVVQVLSHVSTHHLHLESLLTCLSQALKIPKMD | 42000
35 | RASHNASGFPNFLDTSCSSSFDDHFIFTNNLPFLNNNSINNNHSHNSSHNNNS | 56800
36 | EASRSKAATAAAAAADGGKSAAAGEVEERKRKAKAEREAKKAKGALAAAAGAG | 31600
37 | VHEVRAKAVKLVTASDSDDESGAGAGKAKKSEWKTQGVGPLRLLKNKSTGAVR | 32400
38 | MVMVKIPFLLAFVYLFLVLHSHVLVHSFRNFTSLLVFACLLGVGMWRCVWTQM | 58000
39 | TGAKAPEGGKQLIVVVSSDKGLCGGIHSAVTKKTRQEYAAAPAEDKPQLIVVG | 63400
40 | MRYRPSEDLGKKLLLLFIYILFRGKLVVNPFHFFSSFLSFFFFFFFVFFALLL | 35900
41 | AEYDVVLLKRLLYELNGRRNRLMVLPSRLALWEIVMPWVIDLVCRVRFNVTYT | 64600
42 | PAPTGDSPKKEKKRKRESAVAEDAPAAAEAEEADEPEKKKKKKKKHAEAEGAN | 23700
